# Data: US20230088052A1 (JIANGSU HENGRUI PHARMACEUTICALS, published 2023)
# Substitutions are numbered along the chain they refer to.
# T1: his-tagged mouse IL-4R recombinant protein (m-IL-4R-his) (mouse, UniProt P16382 26-233)
# T1 construct: range 26-233; also called Murine IL-4R-his; not shown: his tag
# T1 sequence (looked up): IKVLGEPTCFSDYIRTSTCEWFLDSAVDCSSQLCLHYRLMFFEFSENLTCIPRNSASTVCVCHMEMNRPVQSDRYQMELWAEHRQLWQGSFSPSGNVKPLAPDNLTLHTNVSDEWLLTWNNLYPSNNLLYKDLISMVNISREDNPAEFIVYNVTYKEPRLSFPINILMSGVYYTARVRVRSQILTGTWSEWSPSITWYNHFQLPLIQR
# B1: human-murine chimeric antibody 25G7-C (antibody, V domains shown)
# VH: EVQLVESGGGLVKPGGSLKLSCAASGFTFSDYGMHWVRQAPEKGLEWVAFISSGSSIIYYADIVKGRSTISRDNAKNTLFLQMTSLRSEDTAMYYCTRGNKRGFFDYWGQGTILTVSS
# VL: QIVLTQSPALMSASPGEKVTMTCNASSSVSYMYWYQRKPRSSPKPWIYLTSNLASGVPVRFSGSGSGTSYSLTISSMEAEDAATYYCQQWRSNPPMLTFGSGTKLEVK
# notes: Expressed in HEK293 cells
# B2: humanized antibody hu25G7 (antibody, human IgG4 S228P, kappa, V domains shown)
# VH: B1 VH with K13Q, K19R, E42G, T78S, F80Y, T84N, S88A, M93V, I113L, L114V
# VL: EIVLTQSPATLSLSPGERATLSCNASSSVSYMYWYQQKPGQAPRLLIYLTSNLASGIPARFSGSGSGTDFTLTISSLEPEDFAVYYCQQWRSNPPMLTFGGGTKVEIKR
# notes: Uses the VH-c heavy chain and the VL-a light chain; also called wild-type hu25G7
# B3: human-murine chimeric antibody 7B10-C (antibody, V domains shown)
# VH: QVQLQQPGTELLKPGASVSLSCKASGYTFTSYWMHWVKQRPGQGLEWIGLIHPNSDTTKFSENFKTRATLTIDKSSSTAYMKLSSLTSEDSAVYYCAKSKIITTIVARHWYFDVWGTGTTVTVSS
# VL: DIVLTQSPPSLAVSLGQRATISCKASQSVDYGGDSYMNWYQQKLGQPPKVLIYAASNLESGIPARFSGSGSGTDFTLNIHPVEEEDVATYYCQHSNENPPTFGGGTKLEIK
# notes: Expressed in HEK293 cells
# B4: humanized antibody hu7B10 (antibody, human IgG1, kappa, V domains shown)
# VH: EVQLVQSGAEVKKPGASVKVSCKASGYTFTSYWMHWVRQAPGQGLEWMGLIHPNSDTTKFSENFKTRVTMTIDTSISTAYMELSRLRSDDTAVYYCAKSKIITTIVARHWYFDVWGQGTTVTVSS
# VL: DIVLTQTPLSLSVTPGQPASISCKASQSVDYGGDSYMNWYLQKPGQPPQLLIYAASNLESGVPDRFSGSGSGTDFTLKISRVEAEDVGVYYCQHSNENPPTFGGGTKVEIKR
# notes: Uses the VH-b heavy chain and the VL-b light chain
# B5: murine monoclonal antibody 25G7 (antibody, V domains shown)
# VH: B1 VH
# VL: B1 VL
# notes: also called hybridoma 25G7
# B6: murine monoclonal antibody 7B10 (antibody, V domains shown)
# VH: B3 VH
# VL: B3 VL
# notes: also called hybridoma 7B10
# B7: hu25G7-A antibody (antibody, human IgG4 S228P, kappa, V domains shown)
# VH: B1 VH with K13Q, K19R, E42G, F80Y, T84N, S88A, M93V, I113L, L114V
# VL: B2 VL with N24R, S30P, S92A, N93Y
# B8: hu25G7-B antibody (antibody, human IgG4 S228P, kappa, V domains shown)
# VH: B1 VH with K13Q, K19R, E42G, F80Y, T84N, S88A, M93V, I113L, L114V
# VL: EIVLTQSPATLSLSPGERATLSCRASPGVPPLAWYQQKPGQAPRLLIYLASSRPSGIPARFSGSGSGTDFTLTISSLEPEDFAVYYCQQWRSNPPMLTFGGGTKVEIKR
# B9: Dupilumab (antibody, V domains shown)
# VH: EVQLVESGGGLEQPGGSLRLSCAGSGFTFRDYAMTWVRQAPGKGLEWVSSISGSGGNTYYADSVKGRFTISRDNSKNTLYLQMNSLRAEDTAVYYCAKDRLSITIRPRYYGLDVWGQGTTVTVSS
# VL: DIVMTQSPLSLPVTPGEPASISCRSSQSLLYSIGYNYLDWYLQKSGQSPQLLIYLGSNRASGVPDRFSGSGSGTDFTLKISRVEAEDVGFYYCMQALQTPYTFGQGTKLEIKR
# Molecular target: T2, his-tagged human IL-4R recombinant protein (h-IL-4R-his) (human, UniProt P24394 26-232)
# T2 construct: range 26-232; Made by Acrobiosystems in HEK293; also called Human IL-4R-his; not shown: his tag
# Assay: Biacore SPR: antibody captured, IL-4R antigen in flow, 1:1 model
# Excerpt: Human antibody capture antibody was covalently coupled to a biosensor chip CMS of Biacore instrument (Biacore X100, GE) according to the method described in the instruction of human antibody capture kit (Cat #BR-1008-39, GE), and thus a certain amount of antibodies to be tested were captured based on affinity. Then a series of concentration gradients of IL-4R antigens (the IL-4R antigens all purchased from Acrobiosystems, Cat #ILR-H5221) flowed through the surface of chip, and the Biacore instrument (Biacore X100, GE) was used to detect the reaction signals in real time to obtain the binding and dissociation curves. After each cycle of dissociation was completed, the biochip was washed and regenerated with a regeneration solution prepared in the human antibody capture kit. The amino coupling kit used in the experiment was purchased from GE corporation (Cat #BR-1000-50, GE), and the buffer was HBS-EP+ 10× buffer solution (Cat #BR-1006-69, GE) diluted to 1× (pH 7.4) with D.I. Water.
# The data obtained from the experiment were fitted with BiacoreX100 evaluation software 2.0 GE software with a (1:1) binding model to obtain affinity values.
row,Binder,Kd [nM]
1,B1,0.725
2,B2,1.07
3,B3,0.278
4,B4,0.284

# Molecular target: T1, his-tagged mouse IL-4R recombinant …
# Assay: ELISA, IL-4R-his coated on the plate
row,Binder,binding result
1,B5,no binding
2,B6,no binding

# Molecular target: T3, human IL-4R on cells (HEK-Blue IL-4 cells, TF-1 cells) (human, UniProt P24394 26-825)
# Assay: cell-based or functional assay
Binder,Blocking binding of HEK293-Blue cells (to IL-4) (IC50) [ng/mL],Blocking binding of HEK293-Blue cells (to IL-13) (IC50) [ng/mL],Inhibiting IL-4-related proliferation of TF-1 cells (IC50) [ng/mL],Inhibiting IL-13-related proliferation of TF-1 cells (IC50) [ng/mL]
B7,6.49,10,83.7,13.2
B8,6.6,8.38,51,13.7
B9,12.5,14.8,101,18.1

# Molecular target: T2, his-tagged human IL-4R recombinant …
# Assay: binding ELISA, human IL-4R-his coated
# Protocol: ELISA experiment was used to detect binding properties of anti-IL-4R antibodies. A microplate was coated with his-tagged IL-4R recombinant protein. After the antibody was added to each well, the activity of the binding of the antibody to the antigen was detected by adding a secondary antibody (HRP-conjugated anti-primary antibody Fc antibody) and HRP substrate TMB.
# Human or rhesus IL-4R-his protein was coated on a 96-well microplate, 100 μL per well at a concentration of 0.5 μg/mL, and incubated overnight at 4° C. The plate was washed three times with washing buffer at 250 μL per well. A blocking solution was added at 200 μL per well and the plate was incubated at room temperature for 2 h. The plate was washed three times with washing buffer at 250 μL per well. Anti-IL-4R antibody to be tested diluted in diluent was added at 100 μL per well. The plate was incubated at room temperature for 1 h. The plate was washed three times with washing buffer at 250 μL per well. HRP-labeled goat anti-human IgG secondary antibody diluted at 1:20000 with diluent was added at 100 μL per well. The plate was incubated at room temperature for 1 h. The plate was washed three times with washing buffer at 250 μL per well. TMB was added at 100 μL per well, and the mixture was reacted for 15 min in the dark. 0.16 M/L sulfuric acid was added at 50 μL per well. The OD value was read at 450 nm by a Thermo MultiSkanFc microplate reader and the binding EC₅₀ value of the anti-IL-4R antibody to IL-4R was calculated.
row,Binder,EC50 [µg/mL]
1,B5,0.00332
2,B1,0.00909
3,B2,0.00341
4,B3,0.0118
5,B6,0.0458
6,B4,0.012

# Molecular target: T3, human IL-4R on cells (HEK-Blue IL-4 …)
# Assay: cell-based or functional assay
# Remark: another data set of the same source
Binder,Blocking binding of HEK293-Blue IL-4 cells (to IL-4) (IC50) [ng/mL],Inhibiting IL-4-related proliferation of TF-1 cells (IC50) [ng/mL]
B2,0.943,29.6
B9,0.667,491
B4,6.87,112

# Molecular target: T4, humanized Fc-tagged human IL-4R recombinant protein (h-IL-4R-Fc) (human, UniProt P24394 26-232)
# T4 construct: range 1-232; The printed range starts at Met1, so it includes the signal peptide of the construct; also called Human IL-4R-Fc; not shown: Fc tag
# Assay: blocking ELISA of human IL-4/IL-4R
# Protocol: (§1) Human IL-4R-Fc protein was coated on a 96-well microplate, 100 μL per well at a concentration of 0.5 μg/mL, and incubated overnight at 4° C. The plate was washed three times with washing buffer at 250 μL per well. A blocking solution was added at 200 μL per well and the plate was incubated at room temperature for 2 h. The plate was washed three times with washing buffer at 250 μL per well. Anti-IL-4R antibody to be tested diluted in diluent was added at 100 μL per well, and the plate was incubated at room temperature for 1 h. The plate was washed three times with washing buffer at 250 μL per well. […] HRP-labeled Neutravidin diluted in a diluent at 1:5000 was added, and the plate was incubated at room temperature for 1 h. The plate was washed three times with washing buffer at 250 μL per well. TMB was added at 100 μL per well, and the mixture was reacted for 15 min in the dark. 0.16 M/L sulfuric acid was added at 50 μL per well.
row,Binder,IC50 [µg/mL]
1,B7,0.144
2,B8,0.108

# Molecular target: T4, humanized Fc-tagged human IL-4R …
# Assay: blocking ELISA: human IL-4R-Fc coated, antibody blocks the binding of IL-4
# Protocol: as §1
row,Binder,IC50 [µg/mL]
1,B5,0.00813
2,B1,0.0397
3,B2,0.0236
4,B3,0.162
5,B6,0.0299
6,B4,0.0753

# Molecular target: T3, human IL-4R on cells (HEK-Blue IL-4 …)
# Assay: cell-based or functional assay
# Remark: another data set of the same source
Binder,Blocking binding of HEK293-Blue IL-4 cells (to IL-4) (IC50) [ng/mL],Inhibiting IL-4-related proliferation of TF-1 cells (IC50) [ng/mL]
B1,2.02,20.3
B3,9.03,46.4
B9,3.23,207

# Molecular target: T3, human IL-4R on cells (HEK-Blue IL-4 …)
# Assay: cell-based or functional assay
# Remark: another data set of the same source
Binder,IC50 for blocking binding of HEK293-Blue IL-4 cells (to IL-4) [ng/mL],IC50 for inhibiting IL-4-related proliferation of TF-1 cells [ng/mL]
B5,0.975,51.3
B6,79.8,418
B9,5.07,102
